For assay [1], the target named is T1, GST-ZO-2SGA (canine ZO-2 amino acids 575-947 in pGEX-6P-1) (Canis lupus familiaris, UniProt Q95168 575-947).
T1 construct: also called GST-ZO2 SGA WT
T1 sequence: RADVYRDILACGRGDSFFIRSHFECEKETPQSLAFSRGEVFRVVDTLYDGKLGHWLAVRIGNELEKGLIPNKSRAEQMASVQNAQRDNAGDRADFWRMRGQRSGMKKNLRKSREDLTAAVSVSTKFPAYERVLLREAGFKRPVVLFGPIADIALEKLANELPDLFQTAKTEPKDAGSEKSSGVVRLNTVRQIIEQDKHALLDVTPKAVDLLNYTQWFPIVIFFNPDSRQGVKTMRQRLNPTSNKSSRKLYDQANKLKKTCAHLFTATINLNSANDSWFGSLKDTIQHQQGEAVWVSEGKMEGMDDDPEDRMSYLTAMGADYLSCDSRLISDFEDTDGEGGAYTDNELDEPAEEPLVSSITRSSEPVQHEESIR
The assay can be described thus: GST binding assay with GFP-Slug MDCK lysate, anti-Slug blot.

Assay [2] addresses T2, human ZO-1 SGA domain (amino acids 490-883) in bait vector pGBKT7 (human, UniProt P04386 1-147; Q07157 490-883).
T2 construct: Yeast two-hybrid bait
Nature of the assay: yeast two-hybrid, QDO growth and beta-galactosidase activity. The source says: (§1) All experimental details were according to the manufacturer's protocols. Clones were screened at high stringency with a quadruple (-Trp, -Leu, -His, -Ade) dropout media and then tested for α- and β-galactosidase activity. Library plasmids with the cDNA inserts from positive clones were isolated and sequenced, resulting in the identification of the entire Slug cDNA. The interaction was retested by transforming this Slug cDNA plasmid with bait vectors carrying the human ZO-1 SGA domain (amino acids 490-883), the canine ZO-2 SGA (amino acids 575-945), SH3 (amino acids 575-713), as well as the GA domain (amino acids 714-945) or the canine ZO-3 […] domain (amino acids 450-899). Empty pGBKT7 and a bait plasmid with […] cDNA (Clontech) were used as negative controls.
(§2) The interaction was retested by transforming this Slug cDNA plasmid with bait vectors carrying the human ZO-1SGA domain (amino acids 490-883), the canine ZO-2SGA (amino acids 575-945), SH3 (amino acids 575-713), GA domain (amino acids 714-945), as well as the canine ZO-3SGA domain (amino acids 450-899). Interactions were determined by monitoring the growth of the co-transformed yeasts in on selective media & β-galactosidase activity. […]

For assay [3], the target named is T3, canine ZO-3 SGA domain (amino acids 450-899) in bait vector pGBKT7 (canine, UniProt P04386 1-147; O62683 450-898).
T3 construct: Yeast two-hybrid bait; also called canine ZO-3 SGC domain
Described as above.
Description: as §1, §2

Assay [4] deals with T4, MYC tagged GA domain of canine ZO-3 (amino acids 606-899), in vitro translated (canine, UniProt O62683 606-898).
T4 construct: range 606-899; also called MYC-ZO-3GA; ZO-3GA; not shown: MYC tag from pGBKT7
T4 sequence (looked up): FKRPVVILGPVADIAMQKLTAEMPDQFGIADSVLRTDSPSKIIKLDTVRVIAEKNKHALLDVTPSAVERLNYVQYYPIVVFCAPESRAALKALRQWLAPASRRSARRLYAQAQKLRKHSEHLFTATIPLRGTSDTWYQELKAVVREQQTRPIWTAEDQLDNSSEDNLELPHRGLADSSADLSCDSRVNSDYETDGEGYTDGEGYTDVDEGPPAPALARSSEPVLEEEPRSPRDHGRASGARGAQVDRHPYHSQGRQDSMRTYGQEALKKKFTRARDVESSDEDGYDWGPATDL
Nature of the assay: GST pull-down of in vitro translated MYC-tagged GA domain, anti-myc blot.

Assay [5] deals with T5, HA-Slug (full length mouse Slug in pDHA, two HA tags) (Mus musculus, UniProt P97469 1-269, 35S-methionine labelled in Example 5).
T5 construct: also called pDHA-Slug; HA tagged Slug; not shown: the two HA tags of the pDHA vector and any vector linker
T5 sequence: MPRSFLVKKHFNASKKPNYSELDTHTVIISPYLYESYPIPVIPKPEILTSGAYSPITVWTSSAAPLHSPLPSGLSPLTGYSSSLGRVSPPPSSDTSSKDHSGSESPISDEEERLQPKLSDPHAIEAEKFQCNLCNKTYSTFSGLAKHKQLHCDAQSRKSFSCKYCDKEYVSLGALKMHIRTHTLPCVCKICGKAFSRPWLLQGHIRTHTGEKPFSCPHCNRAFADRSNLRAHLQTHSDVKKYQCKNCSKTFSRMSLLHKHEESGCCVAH
Nature of the assay: GST pull-down of 35S-labeled in vitro translated protein, autoradiography. How it is done: In vitro translation was carried out using Quick Coupled T7 TNT System (Promega, Madson, Wis.) according to the manufacturers protocol. Slug, EX and ZNF cloned into the pDHA vector were in vitro translated and labeled with 35S Methionine. GST, GST-ZO-2 SGA, GST-ZO-2 SH3, GST-20-2 GA, GST-ZO-2 AP and GST-ZO-2 P were produced, purified as described above and were bound to glutathione Sepharose-4B (Amersham Biosciences, Piscataway, N.J., USA) following standard protocols.
Purified GST-fusion proteins were quantified by SDS-PAGE by comparing with known amounts of BSA as standards. 20 μl bed volume of beads carrying 20 μg of GST or the above GST fused ZO-2 truncated proteins were incubated with 10 μl of in vitro translated 35S Methionine labeled, HA tagged Slug, EX or ZNF and topped up with 200 μl of buffer B (PBS with 1% TX-100 PBS, 1 mM EDTA, Complete EDTA free protease inhibitor cocktail (Roche Diagnostics, Indianapolis, Ind.), 1 mM dithiothreitol (DTT), 300 μg/ml Benzamiidine) for 3 h at 4° C. The beads were washed three times with 500 μl of buffer B each time. This was followed by suspension in 30 μl of SDS sample buffer and the analysis of the bound proteins by running through a 15% SDS-PAGE gel and autoradiography, with a 2 to 3 day exposure period. To reciprocate the binding, GST, GST-Slug and GST-ZNF were used as baits. […]

B1: GFP-Slug (full length mouse Slug in pEGFP, stably expressed in MDCK cells) (other)
chain: T5 sequence
notes: not shown: EGFP of the pEGFP vector and its linker to Slug
Turning to B1, the binding result in assay [1] is “binds”.

B2: full-length mouse Slug fused to the GAL4 transactivator domain (library clone 30A) (other, not shown: small tags and cut ends)
chain: T5 sequence
notes: Yeast two-hybrid prey, full length; also called pGADT7-Slug
Consider B2, for which the binding result in assay [2] and in assay [3] was “no binding” in each case.

B3: GST-Slug (full length mouse Slug in pGEX4T-1) (other)
chain: T5 sequence
notes: Full length Slug; not shown: GST and the protease-site linker encoded by pGEX4T-1
B3: the binding result in assay [4] is on record as “no binding”.

B4: GST-ZO-2P (proline rich domain, canine ZO-2 amino acids 948-1174 in pGEX-6P-1) (other)
chain: KPSPEPRAQMRRAASRDQLRDSSPPPAFKPEPPKAKTQNREESFDISRSHDYKSNPSAVAGNEVSGASTRSCPPPIAAKPSFGRSILKPSTPVPSPESEEVGEGSEEQEGAPKSVLGKVKIFEKMDHKARLQRMQELQEAQNARIEIAQKHPDIYAVPIKTHKPDPGLSQHTSSRPPEPQKGPSRLYQDPRGSYGSDAEEEEYRQQLSEHSKRGYYSQPSRYRDTEL
notes: also called the P; not shown: GST of pGEX-6P-1 and its linker (PreScission site, cloning-site residues)
B4: in assay [5], the binding result is recorded as “no binding”.
